These results are taken from PMC6369299, “A heterodimeric glutathione S-transferase that stereospecifically breaks lignin's β(R)-aryl ether bond reveals the diversity of bacterial β-etherases” (The Journal of Biological Chemistry, 2018).

The target of data set [1] is T1, NaLigF1 (Novosphingobium aromaticivorans, UniProt Q2G6J3).
T1 construct: gene Saro_2091; recombinant, purified as described previously
T1 sequence (Q2G6J3 11-257 limits assumed): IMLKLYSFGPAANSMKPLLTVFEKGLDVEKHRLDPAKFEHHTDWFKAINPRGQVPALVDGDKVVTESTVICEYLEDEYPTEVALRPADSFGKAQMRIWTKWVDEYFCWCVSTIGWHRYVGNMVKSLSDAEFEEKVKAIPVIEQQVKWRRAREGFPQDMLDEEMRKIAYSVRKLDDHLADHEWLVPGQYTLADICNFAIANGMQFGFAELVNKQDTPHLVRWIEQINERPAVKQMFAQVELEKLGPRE
Description: HPLC end-point conversion of MPHPV. It counts as biochemical. The following applies: β(S)-MPHPV left after BaeA+BaeB reaction on racemic MPHPV; GSH, 25 mM Tris-HCl pH 8.0, 25 mM NaCl, 30 °C.

The target of data set [2] is T2, NaLigE (Novosphingobium aromaticivorans, UniProt Q2G5N2).
T2 construct: gene Saro_2405; recombinant from E. coli; N-terminal His8 tag cut by TEV (SAIAG- left); homodimer
T2 sequence (Q2G5N2 1-279): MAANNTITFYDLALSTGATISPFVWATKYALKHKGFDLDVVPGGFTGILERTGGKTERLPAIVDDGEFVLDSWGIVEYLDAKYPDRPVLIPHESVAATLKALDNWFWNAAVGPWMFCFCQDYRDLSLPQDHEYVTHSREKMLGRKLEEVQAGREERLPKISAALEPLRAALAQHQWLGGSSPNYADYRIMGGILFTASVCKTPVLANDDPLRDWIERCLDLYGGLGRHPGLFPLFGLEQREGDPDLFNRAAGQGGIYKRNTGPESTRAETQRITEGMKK
Description: initial rate of GS-HPV formation by HPLC, Michaelis-Menten fit. It counts as biochemical. The settings on record: racemic MPHPV added, concentration counted as β(R); 5 mM GSH, 25 mM Tris-HCl pH 8.0, 25 mM NaCl, 25 °C; per subunit of the homodimer. An excerpt: initial rate of GS-HPV formation by HPLC, Michaelis-Menten fit on NaLigE

Substrate in data set [3]: COc1cc(C(=O)[C@@H](CO)Oc2ccccc2OC)ccc1O
The data set is described as above. It counts as biochemical, Novosphingobium aromaticivorans. The following applies: racemic MPHPV added, concentration counted as β(R), 5 mM GSH, 25 mM Tris-HCl pH 8.0, 25 mM NaCl, 25 °C, per heterodimer. An excerpt:
initial rate of GS-HPV formation by HPLC, Michaelis-Menten fit on BaeAB

Numbering of substitutions follows the chain as printed. Numbers in names are those of the source.

For the molecule `COc1cc(C(=O)[C@H](CO)Oc2ccccc2OC)ccc1O` [β(S)-MPHPV], in data set [1], the “HPLC end-point conversion of MPHPV” value was “upon the addition of NaLigF1, the MPHPV was completely converted into GS-HPV and guaiacol”.

What is called Km is the concentration of substrate that gives half-maximal velocity. As to `COc1cc(C(=O)[C@@H](CO)Oc2ccccc2OC)ccc1O` [β(R)-MPHPV], the Km in data set [2] came out at 7 ± 1 µM.

B1: BaeAB (Novosphingobium aromaticivorans DSM 12444) (protein)
chain: MDEVSLYHWEPNANSGKPMLALMEKGVPFSSHYIDMLQFDQHKPEYLAINPQGTIPAMTHNGQVLTESTAIMEYVNDRFDGPDLMPADAQDRWRVRWWMKFMDQWLGPSFSMIGWSVFVGPMVRQRDPAELAAAIDRIPLPERRTAWRKAINGDFSESEMAESRRRVGLGIAKLEEELGKRPYVGSNQYSLADINIFNSTYSLPISQPDLAGKDRTPNIMRWLKRVYTREAVKKTWAMGKTDLAHRYGLIMAEIEG
notes: co-expressed in E. coli B834, His8 tag on BaeB cut by TEV leaving SAIAG- linked to Ser2 (Met1 not coded); heterodimer, ~59 kDa by GPC; with Glutathione S-transferase-like protein (beta-etherase subunit BaeB)
For orientation: kcat means the maximal rate divided by the concentration of active sites. For orientation: kcat/Km means the second-order rate constant that governs catalysis at low substrate concentration. On to B1, for which, in data set [3], the Michaelis-Menten constant (Km) was 20 ± 3 µM, the kcat was 2.9 ± 0.3 s⁻¹ and the catalytic efficiency (kcat/Km) was 150000 ± 30000 M⁻¹ s⁻¹.

B2: BaeAB (Novosphingobium aromaticivorans DSM 12444; S15A) (protein)
chain: B1 chain with S15A
notes: as for B1
For B2, in data set [3], the Km was found to be 100 ± 20 µM, the catalytic constant (kcat) worked out at 2.4 ± 0.3 s⁻¹ and the kcat/Km came out at 23000 ± 6000 M⁻¹ s⁻¹.

B3: BaeAB (Novosphingobium aromaticivorans DSM 12444; N14A) (protein)
chain: B1 chain with N14A
notes: as for B1
On to B3, for which, in data set [3], the Michaelis-Menten constant (Km) was found to be 250 ± 60 µM, the turnover number (kcat) came out at 0.14 ± 0.02 s⁻¹ and the kcat/Km turned out to be 500 ± 200 M⁻¹ s⁻¹.
